Test results: US20200392251A1 (University of California, published 2020)

What was measured:
[1] = molecular target: T1, catalytic domain of human MMP-14 (cdMMP-14) (human, UniProt P50281 114-320); test: FRET peptide inhibition assay; KI=IC50/(S/Km+1)
T1 construct: range 114-320; Produced active in E. coli periplasm; biotinylated for BLI/ELISA
Experimental: (§1) For inhibition tests, 1 μM Fabs were 2-fold serially diluted into protease specific assay buffer and incubated with 1-10 nM proteases for 30 min at room temperature. […] Inhibition percentages at given concentrations were calculated by comparing the initial reaction rates in the presence or absence of inhibitor. […] Vₘₐₓ and Kₘ at various Fab concentrations were measured to determine the inhibition type. FRET inhibition assays were also used for selectivity tests of isolated Fabs with the relevant proteases.

[2] = molecular target: T1, catalytic domain of human MMP-14 …; test: enzyme inhibition assay with FRET peptide substrate (M-2350), Fab titrated on cdMMP-14 [panel 2B12]
Experimental: as §1

[3] = molecular target: T1, catalytic domain of human MMP-14 …; test: bio-layer interferometry (ForteBio), biotinylated protease on streptavidin biosensor, Fab in solution [panel 2B12]
Experimental: (§2) Binding kinetics of produced antibodies towards associated protease targets were analyzed by using biolayer interferometry (ForteBio). For Fabs, biotinylated proteases were immobilized on streptavidin biosensors, and Fab binding to the sensors in absence of protease was monitored as backgrounds.

[4] = molecular target: T1, catalytic domain of human MMP-14 …; test: biolayer interferometry; biotinylated protease on streptavidin sensor, Fab in solution
Experimental: as §2

[5] = molecular target: T2, human MMP-12 catalytic domain wild type (cdMMP-12 wt) (human, UniProt P39900 106-263); test: bio-layer interferometry (BLItz); biotinylated cdMMP-12 on streptavidin sensor, 50/100/200 nM Fab
T2 construct: biotinylated for ELISA/BLI; also called wt cdMMP-12; cdMMP-12 wide-type
Experimental: (§3) On streptavidin coated ELISA plates, 5 μg/mL biotinylated cdMMPs were immobilized and incubated with two-fold serially diluted purified Fabs. Bound Fabs were detected with anti-Fab-HRP (Sigma-Aldrich), and signals were developed by TMB substrate (Thermo Scientific) and measured using a microplate reader (BioTek). […] Bound Fabs were detected using anti-Fab-HRP. For bio-layer interferometry (using ForteBio BLItz), biotinylated cdMMP-12 D4/wt was loaded onto streptavidin biosensors. After washing to establish baselines, 50, 100, or 200 nM of Fabs were associated with immobilized cdMMP-12 D4/wt for 200 sec, then dissociated into 50 mM HEPES, 150 mM NaCl pH 7.5 for 120 sec. Averages of measured kₒₙ and koff values were determined for KD calculations.

[6] = molecular target: T3, human MMP-12 catalytic domain mutant D4 (cdMMP-12 D4) (human); test: as above
T3 construct: PROSS-designed expression-optimised mutant; Cytoplasmically expressed in E. coli, purified on Ni-NTA; biotinylated for ELISA/BLI; also called cdMMP-12 mutant D4; modified D4
Experimental: as §3

[7] = molecular target: T2, human MMP-12 catalytic domain wild type …; test: direct ELISA; biotinylated cdMMP on streptavidin plate, Fab titrated, anti-Fab-HRP
Experimental: as §3

[8] = molecular target: T3, human MMP-12 catalytic domain mutant D4 …; test: as above
Experimental: as §3

[9] = molecular target: T1, catalytic domain of human MMP-14 …; test: FRET peptide inhibition assay; reference cdMMP-12 mutant D4
Experimental: (§4) To calculate inhibition constants (KIs), data were fit with the equations for slow tight-binding inhibitors. The inhibition type of the Fabs was determined using the initial velocities of cdMMP-12 D4 as a function of substrate concentration (250-2000 nM) at various Fab concentrations (31-500 nM). The values of Vₘₐₓ and Kₘ were derived from linearization in accordance with the Lineweaver-Burk equation.

[10] = molecular target: T1, catalytic domain of human MMP-14 …; test: FRET peptide inhibition assay
Experimental: as §4

[11] = molecular target: T1, catalytic domain of human MMP-14 …; test: bio-layer interferometry; reference cdMMP-12 wt
[12] = molecular target: T3, human MMP-12 catalytic domain mutant D4 …; test: FRET peptide (M-2350) inhibition assay
Experimental: as §4

[13] = molecular target: T2, human MMP-12 catalytic domain wild type …; test: bio-layer interferometry (ForteBio BLItz), biotinylated cdMMP-12 wt on streptavidin biosensor, Fab at 50, 100 and 200 nM [panel B, LH6]
Experimental: as §3

[14] = molecular target: T3, human MMP-12 catalytic domain mutant D4 …; test: bio-layer interferometry (ForteBio BLItz), biotinylated cdMMP-12 D4 on streptavidin biosensor, Fab at 50, 100 and 200 nM [panel A, LH6]
Experimental: as §3

[15] = molecular target: T1, catalytic domain of human MMP-14 …; test: bio-layer interferometry
[16] = molecular target: T2, human MMP-12 catalytic domain wild type …; test: cell-based or functional assay
[17] = molecular target: T3, human MMP-12 catalytic domain mutant D4 …; test: cell-based or functional assay
[18] = molecular target: T1, catalytic domain of human MMP-14 …; test: enzyme inhibition assay with FRET peptide substrate (M-2350), Fab titrated on cdMMP-14 [panel 2B4]
Experimental: as §1

[19] = molecular target: T1, catalytic domain of human MMP-14 …; test: bio-layer interferometry (ForteBio), biotinylated protease on streptavidin biosensor, Fab in solution [panel 2B4]
Experimental: as §2

[20] = molecular target: T3, human MMP-12 catalytic domain mutant D4 …; test: bio-layer interferometry (ForteBio BLItz), biotinylated cdMMP-12 D4 on streptavidin biosensor, Fab at 50, 100 and 200 nM [panel A, LG4]
Experimental: as §3

[21] = molecular target: T2, human MMP-12 catalytic domain wild type …; test: bio-layer interferometry (ForteBio BLItz), biotinylated cdMMP-12 wt on streptavidin biosensor, Fab at 50, 100 and 200 nM [panel B, LG4]
Experimental: as §3

[22] = molecular target: human β-secretase 1 (BACE1), extracellular/catalytic domain (human, UniProt P56817 46-457, limits assumed); test: cell-based or functional assay
[23] = molecular target: T2, human MMP-12 catalytic domain wild type …; test: bio-layer interferometry (ForteBio BLItz), biotinylated cdMMP-12 wt on streptavidin biosensor, Fab at 50, 100 and 200 nM [panel B, LH11]
Experimental: as §3

[24] = molecular target: T3, human MMP-12 catalytic domain mutant D4 …; test: bio-layer interferometry (ForteBio BLItz), biotinylated cdMMP-12 D4 on streptavidin biosensor, Fab at 50, 100 and 200 nM [panel A, LH11]
Experimental: as §3

[25] = molecular target: T1, catalytic domain of human MMP-14 …; test: bio-layer interferometry (ForteBio), biotinylated protease on streptavidin biosensor, Fab in solution [panel 1A5]
Experimental: as §2

[26] = molecular target: T1, catalytic domain of human MMP-14 …; test: enzyme inhibition assay with FRET peptide substrate (M-2350), Fab titrated on cdMMP-14 [panel 1A5]
Experimental: as §1

T2 sequence (P39900 other isoform, or with tags, fused parts or gaps limits assumed): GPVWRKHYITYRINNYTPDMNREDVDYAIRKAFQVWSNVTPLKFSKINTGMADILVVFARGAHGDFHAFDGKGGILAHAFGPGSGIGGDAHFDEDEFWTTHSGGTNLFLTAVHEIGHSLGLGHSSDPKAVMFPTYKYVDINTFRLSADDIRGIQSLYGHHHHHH
T3 sequence (chain, as listed by the source mutant limits assumed): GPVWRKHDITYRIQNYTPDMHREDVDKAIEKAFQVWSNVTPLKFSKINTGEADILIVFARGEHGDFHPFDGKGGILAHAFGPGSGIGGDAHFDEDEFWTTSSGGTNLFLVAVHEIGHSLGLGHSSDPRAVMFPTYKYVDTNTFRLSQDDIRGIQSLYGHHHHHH
human β-secretase 1 (BACE1), extracellular/catalytic domain, sequence (P56817 46-457 limits assumed, form in doubt): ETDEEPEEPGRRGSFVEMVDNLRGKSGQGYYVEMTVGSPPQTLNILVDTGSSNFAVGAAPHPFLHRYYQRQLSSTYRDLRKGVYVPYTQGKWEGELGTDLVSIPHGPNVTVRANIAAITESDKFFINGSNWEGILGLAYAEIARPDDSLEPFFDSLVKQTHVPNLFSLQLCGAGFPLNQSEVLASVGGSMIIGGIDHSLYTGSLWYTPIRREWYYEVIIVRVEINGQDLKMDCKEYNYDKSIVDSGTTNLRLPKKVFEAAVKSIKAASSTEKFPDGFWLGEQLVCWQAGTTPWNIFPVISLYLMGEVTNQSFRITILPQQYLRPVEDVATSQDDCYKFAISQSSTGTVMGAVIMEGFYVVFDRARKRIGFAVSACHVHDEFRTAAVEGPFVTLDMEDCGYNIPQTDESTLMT

Row | Ki [1] [nM] | Kd [4] [nM] | Kd [5] [nM] | Kd [6] [nM] | EC50 [7] [nM] | EC50 [8] [nM] | fold (KD compared with cdMMP-12 wt) [11] [fold] | Ki [12] [nM] | Kd [15] [nM] | Inhibition, Elastin-FITC IC50 [16] [nM] | Inhibition, Elastin-FITC IC50 [17] [nM] | Binder | further results
1 | 120 | 76 |  |  |  |  |  |  |  |  |  | anti-MMP-14 Fab 2B12 (Fab, V domains shown, Fab from a synthetic human Fab library, produced in E. coli periplasm; also called Clone 2B12) VH: EVQLVESGGGLVQPGGSLRLSCAASGFNIYYSSMHWVRQAPGKGLEWVAYIYSSSSYTYYADSVKGRFTISADTSKNTAYLQMNSLRAEDTAVYYCARDCCSCVFSQSAGITLACVYVMDYWGQGTLVTVSS VL: DIQMTQSPSSLSASVGDRVTITCRASQSVSSAVAWYQQKPGKAPKLLIYSASSLYSGVPSRFSGSRSGTDFTLTISSLQPEDFATYYCQQWGPHYAPITFGQGTKVEIKR | IC50 [2]: 140 nM; koff [3]: 0.0053 s⁻¹; kon [3]: 70000 M⁻¹ s⁻¹
2 | 98 | 66 |  |  |  |  |  |  |  |  |  | anti-MMP-14 Fab 2B4 (Fab, V domains shown, Fab from a synthetic human Fab library, produced in E. coli periplasm; also called Clone 2B4) VH: EVQLVESGGGLVQPGGSLRLSCAASGFNLYSSYIHWVRQAPGKGLEWVASIYSSYSSTYYADSVKGRFTISADTSKNTAYLQMNSLRAEDTAVYYCARSDSAVYSVRRMGSSGLAAYAMDYWGQGTLVTVSS VL: DIQMTQSPSSLSASVGDRVTITCRASQSVSSAVAWYQQKPGKAPKLLIYSASSLYSGVPSRFSGSRSGTDFTLTISSLQPEDFATYYCQQYSYGYSSLITFGQGTKVEIKR | IC50 [18]: 110 nM; koff [19]: 0.00079 s⁻¹; kon [19]: 12000 M⁻¹ s⁻¹
3 |  |  | 75 | 38 | 140 | 100 | 10 | 75 | 780 | 23 | 18 | anti-MMP-12 Fab LH11 (Fab, V domains shown, Fab from a synthetic human Fab library with long CDR-H3s, produced in E. coli periplasm; also called Clone LH11) VH: EVQLVESGGGLVQPGGSLRLSCAASGFNLSYYSMHWVRQAPGKGLEWVAYIYPYYGSTYYADSVKGRFTISADTSKNTAYLQMNSLRAEDTAVYYCARFLLSIGKLFVGDGSILHVWL VL: DIQMTQSPSSLSASVGDRVTITCRASQSVSSAVAWYQQKPGKAPKLLIYSASSLYSGVPSRFSGSRSGTDFTLTISSLQPEDFATYYCQQAYYGYLFTFGQGTKVEIKR | koff [23]: 0.0032 s⁻¹; kon [23]: 43000 M⁻¹ s⁻¹; koff [24]: 0.0035 s⁻¹; kon [24]: 92000 M⁻¹ s⁻¹; fold (KI compared with cdMMP-12 mutant D4) [9]: 130 fold; Ki [10]: 9600 nM; Inhibition, Fibronectin IC50 [16]: 510 nM
4 | 150 | 57 |  |  |  |  |  |  |  |  |  | anti-MMP-14 Fab 1A5 (Fab, V domains shown, Fab from a synthetic human Fab library, produced in E. coli periplasm; also called Clone 1A5) VH: EVQLVESGGGLVQPGGSLRLSCAASGFNLYYYYMHWVRQAPGKGLEWVAYIYPYSGSTYYADSVKGRFTISADTSKNTAYLQMNSLRAEDTAVYYCARLDFLMRDIYYDLGGGALGWLIKYAMDYWGQGTLVTVSS VL: DIQMTQSPSSLSASVGDRVTITCRASQSVSSAVAWYQQKPGKAPKLLIYSASSLYSGVPSRFSGSRSGTDFTLTISSLQPEDFATYYCQQYSGPYPITFGQGTKVEIKR | koff [25]: 0.0025 s⁻¹; kon [25]: 44000 M⁻¹ s⁻¹; IC50 [26]: 170 nM

Further lines, the binder ahead of its results:

Row | Binder | Ki [1] [nM] | Kd [4] [nM] | Kd [5] [nM] | Kd [6] [nM] | EC50 [7] [nM] | EC50 [8] [nM] | fold (KD compared with cdMMP-12 wt) [11] [fold] | Ki [12] [nM] | Kd [15] [nM] | Inhibition, Elastin-FITC IC50 [16] [nM] | Inhibition, Elastin-FITC IC50 [17] [nM] | further results
5 | anti-MMP-12 Fab LH6 (Fab, V domains shown, Fab from a synthetic human Fab library with long CDR-H3s, produced in E. coli periplasm; also called Clone LH6) VH: EVQLVESGGGLVQPGGSLRLSCAASGFNLSYSYMHWVRQAPGKGLEWVASIYPSYGSTYYADSVKGRFTISADTSKNTAYLQMNSLRAEDTAVYYCARDLEESLPKRARTAVSKELESVPYVMDYWGQGTLVTVSS VL: DIQMTQSPSSLSASVGDRVTITCRASQSVSSAVAWYQQKPGKAPKLLIYSASSLYSGVPSRFSGSRSGTDFTLTISSLQPEDFATYYCQQSSHYASPPITFGQGTKVEIKR |  |  | 430 | 510 | ~1000 | 290 | 1.1 | 91 | 480 | 1700 | 61 | fold (KI compared with cdMMP-12 mutant D4) [9]: 52 fold; Ki [10]: 4700 nM; koff [13]: 0.0065 s⁻¹; kon [13]: 15000 M⁻¹ s⁻¹; koff [14]: 0.011 s⁻¹; kon [14]: 22000 M⁻¹ s⁻¹
6 | anti-MMP-12 Fab LG4 (Fab, V domains shown, Fab from a synthetic human Fab library with long CDR-H3s, produced in E. coli periplasm; also called Clone LG4) VH: EVQLVESGGGLVQPGGSLRLSCAASGFNLYYSYMHWVRQAPGKGLEWVASISSYYGYTSYADSVKGRFTISADTSKNTAYLQMNSLRAEDTAVYYCARSPIVYYELFMFIDMGAQGWKYGMDYWGQGTLVTVSS VL: DIQMTQSPSSLSASVGDRVTITCRASQSVSSAVAWYQQKPGKAPKLLIYSASSLYSGVPSRFSGSRSGTDFTLTISSLQPEDFATYYCQQTFYPFTFGQGTKVEIKR |  |  | 71 | 37 | 180 | 97 | 9 | 76 | 640 | 350 | 210 | koff [20]: 0.0041 s⁻¹; kon [20]: 110000 M⁻¹ s⁻¹; koff [21]: 0.0038 s⁻¹; kon [21]: 54000 M⁻¹ s⁻¹
7 | anti-BACE1 IgG B2B2 (antibody, V domains shown) VH: EVQLVESGGGLVQPGGSLRLSCAASGFNISSYYMHWVRQAPGKGLEWVASIYSSYGYTYYADSVKGRFTISADTSKNTAYLQMNSLRAEDTAVYYCARYWGYYAWFGSHPWAYGAFDYWGQGTLVTVSS VL: DIQMTQSPSSLSASVGDRVTITCRASQSVSSAVAWYQQKPGKAPKLLIYSASSLYSGVPSRFSGSRSGTDFTLTISSLQPEDFATYYCQQYGYYLITFGQGTKVEIKR |  |  |  |  |  |  |  |  |  |  |  | apparent IC50 of Aβ40 production, HEK293 cells expressing APP [22]: 330 nM
